{
  "source": "paper PMC4705663",
  "key": {"LexA": {"tested_on": "LexA", "assay": "FRET", "settings": "LexA titration; S1/2 of nucleosome unwrapping, 75 mM NaCl; HI-FI FRET: 25 mM Tris pH 7.5, 200 mM NaCl, 0.01% NP40 and CHAPS; EMSA: 25 mM Tris-HCl pH 7.5, 150 mM NaCl, 5 mM DTT, +/-10% glycerol, RT 30 min; NMR: 25 mM …"}, "BRPF1 PZP domain [1]": {"tested_on": "BRPF1 PZP domain", "assay": "FRET", "settings": "with LexA fixed at its S1/2 (2 uM); HI-FI FRET: 25 mM Tris pH 7.5, 200 mM NaCl, 0.01% NP40 and CHAPS; EMSA: 25 mM Tris-HCl pH 7.5, 150 mM NaCl, 5 mM DTT, +/-10% glycerol, RT 30 min; NMR: 25 mM …"}, "[2]": {"molecular_target": "Oregon Green 488-labeled BRPF1 PZP domain (UniProt P55201)", "assay": "FRET or BRET; HIFI-FRET titration; Atto647N-labeled mononucleosomes titrated against three concentrations of Oregon Green labeled PZP; 25 mM Tris 7.5, 200 mM NaCl, 0.01% NP40 and CHAPS; quadratic fit; apparent Kd"}, "BRPF1 PZP domain [3]": {"tested_on": "BRPF1 PZP domain", "assay": "HI-FI FRET", "settings": "200 mM NaCl, HI-FI FRET: 25 mM Tris pH 7.5, 200 mM NaCl, 0.01% NP40 and CHAPS, EMSA: 25 mM Tris-HCl pH 7.5, 150 mM NaCl, 5 mM DTT, +/-10% glycerol, RT 30 min, NMR: 25 mM …"}, "[4]": {"molecular_target": "histone H3 tail H3 tail (Homo sapiens) (UniProt P68431)", "settings": "cited from earlier work"}, "[5]": {"molecular_target": "NCP165, mononucleosome assembled with unlabeled Xenopus octamer on 165 bp 601 DNA (Xenopus)", "assay": "AUC; sedimentation velocity; unlabeled NCP165 incubated with increasing molar ratios of PZP overnight at 4°C; 20 mM Tris 7.5, 50 mM NaCl, 2 mM arginine; 20°C, 40 000 rpm; free components also run alone"}, "[6]": {"molecular_target": "Atto647N-labeled NCP165 (Xenopus octamer labeled at H4E63C, 165 bp 601 DNA) (Xenopus)", "assay": "FRET or BRET; HIFI-FRET Job plot (continuous variation); Oregon Green 488-PZP donor and Atto647N-NCP165 acceptor; total concentration of reactants constant at 1 μM, 50 nM steps"}},
  "data": [
    {"substance": "601L Cy3-Cy5 NCP with LexA site", "values": [
      {"measurement": "K half", "setting": "LexA", "result": 2000, "unit": "nM"},
      {"measurement": "K half", "setting": "BRPF1 PZP domain [1]", "result": 4, "unit": "µM"}
    ]},
    {"substance": "Atto647N-labeled NCP165 (Xenopus octamer labeled at H4E63C, 165 bp 601 DNA) (complex)", "values": [
      {"measurement": "Kd", "setting": "[2]", "result": 0.273, "unit": "µM"}
    ]},
    {"substance": "Atto647N-labeled NCP147 (Xenopus octamer labeled at H4E63C, 147 bp 601 DNA) (complex)", "values": [
      {"measurement": "Kd", "setting": "[2]", "result": "> 1", "unit": "µM"}
    ]},
    {"substance": "NCP147 (FRET)", "values": [
      {"measurement": "Kd", "setting": "BRPF1 PZP domain [3]; apparent, curve did not plateau", "result": "> 1", "unit": "µM"}
    ]},
    {"substance": "BRPF1 PZP PZP (from UniProt P55201)", "values": [
      {"measurement": "Kd", "setting": "[4]", "result": 12, "unit": "µM"}
    ]},
    {"substance": "BRPF1 PZP domain (amino acids 267–454) (from UniProt P55201 267-454) (domain or fragment)", "values": [
      {"measurement": "stoichiometry N", "setting": "[5]", "result": 2}
    ]},
    {"substance": "NCP165", "values": [
      {"measurement": "Kd", "setting": "BRPF1 PZP domain [3]; apparent Kd", "result": 0.273, "unit": "µM"}
    ]},
    {"substance": "Oregon Green 488-labeled BRPF1 PZP domain (from UniProt P55201 267-454) (domain or fragment)", "values": [
      {"measurement": "stoichiometry N", "setting": "[6]", "result": 1.8}
    ]}
  ]
}
